From PMC4451147 come the findings set out here.

Experiment [1] has as its target Tubulin purified from lamb brains (sheep (purified from lamb brains)). Description: ITC; stathmin (syringe, 50-200 uM) injected into tubulin (cell, 5-20 uM); no MTA; 37°C; 20 mM NaPi, 4 mM MgCl2, 0.1 mM GTP, pH 6.5; one set of sites model; apparent constants.
For experiment [2] the target is unchanged. Description: ITC; stathmin (syringe) injected into tubulin (cell); vinflunine (10 uM) in cell and syringe; 37°C; 20 mM NaPi, 4 mM MgCl2, 0.1 mM GTP, pH 6.5; one set of sites model; apparent constants. (Isothermal titration calorimetry measures the heat released or taken up as one component is titrated into another.)

B1: Human recombinant stathmin (natural protein)
chain: MASSDIQVKELEKRASGQAFELILSPRSKESVPEFPLSPPKKKDLSLEEIQKKLEAAEERRKSHEAEVLKQLAEKREHEKEVLQKAIEENNNFSKMAEEKLTHKMEANKENREAQMAAKLERLREKDKHIEEVRKNKESKDPADETEAD
B1: in experiment [1], the Ka is 2.7e+06 M⁻¹ and the dH (kcal/mole of stathmin) was -7.5. In addition, in experiment [2], the Ka worked out at 7.8e+06 M⁻¹ and the dH (kcal/mole of stathmin) is -30.
